Key:
Cinpanemab (BIIB-054) = assay: SPR
[1] = biological target: α-syn aggregates of MSA patient brain (Homo sapiens (Human).) (UniProt P37840); assay: ELISA
[2] = biological target: α-syn aggregates of PD patient brain (Homo sapiens (Human).) (UniProt P37840); assay: ELISA
[3] = biological target: Full length, human α-synuclein, recombinant monomer (Homo sapiens (Human).) (UniProt P37840); assay: microfluidic diffusional sizing
[4] = biological target: human α-syn oligomers (ND Biosciences) (Homo sapiens (Human).) (UniProt P37840); assay: microfluidic diffusional sizing

Row | Kd (Cinpanemab (BIIB-054)) [nM] | EC50 [1] [nM] | EC50 [2] [nM] | Kd [3] [nM] | Kd [4] [nM] | Substance
1 | > 100 |  |  |  |  | Full length, human α-synuclein, recombinant monomer (from UniProt P37840 1-140) (natural protein)
2 |  | 0.09 | 0.16 | 12 | 0.3 | Lu AF82422 (amlenetug), monospecific wild type human IgG1 (antibody)
